Measured values published in article PMC5014551, “Role of Nfu1 and Bol3 in iron-sulfur cluster transfer to mitochondrial clients” (eLife, 2016).

Molecular target: T1, recombinant human BOLA1, fluorescently labelled (human, UniProt Q9Y3E2 1-137, NT-647 dye (Monolith NT Protein Labeling Kit RED))
T1 construct: BOLA1, human mitochondrial BolA protein
T1 sequence (looked up): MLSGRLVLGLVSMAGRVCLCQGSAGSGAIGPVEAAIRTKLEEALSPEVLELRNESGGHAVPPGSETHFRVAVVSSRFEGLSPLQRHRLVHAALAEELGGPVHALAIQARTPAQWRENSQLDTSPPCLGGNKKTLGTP
Experiment: MST; 200 nM NT-647 labelled protein titrated with unlabelled protein from 200 µM to 6.1 nM; 50 mM KPi pH 7.4, 150 mM NaCl, 5% glycerol, 0.05 mg/mL BSA, 0.05% Tween20; 21°C; anaerobic
Details: both partners purified

fold affinity against BOLA3: 50 fold
B1: human holo-GLRX5 dimer containing the bridging [2Fe-2S] cluster (natural protein, UniProt Q86SX6 32-157, looked up)
chain: AGSGAGGGGSAEQLDALVKKDKVVVFLKGTPEQPQCGFSNAVVQILRLHGVRDYAAYNVLDDPELRQGIKDYSNWPTIPQVYLNGEFVGGCDILLQMHQNGDLVEELKKLGIHSALLDEKKDQDSK
modifications: bridging [2Fe-2S] cluster between two GLRX5 monomers
notes: GLRX5, human mitochondrial monothiol glutaredoxin, chemically reconstituted; also called chemically reconstituted GLRX5; source: chemically reconstituted with Fe-S cluster in an anaerobic chamber
